{"source": "paper PMC10681739", "about": "“High-throughput data and modeling reveal insights into the mechanisms of cooperative DNA-binding by transcription factor proteins”", "binders": {"B1": {"name": "Table S3 C row 194 (dsDNA)", "DNA 1": "TGGGCAAGCCTTGGGCTTCCGGAGCCAAAAGGCCCA", "DNA 2": "TGGGCCTTTTGGCTCCGGAAGCCCAAGGCTTGCCCA"}, "B2": {"name": "Table S3 B row 2476 (dsDNA)", "DNA 1": "CAGGTCACCGCAGTCCCCACCACTGCCTGTTATTGT", "DNA 2": "ACAATAACAGGCAGTGGTGGGGACTGCGGTGACCTG"}, "B3": {"name": "Table S3 B row 1078 (dsDNA)", "DNA 1": "ATTTGTCACCAAACCACAGAGAGGACATGATTGTAA", "DNA 2": "TTACAATCATGTCCTCTCTGTGGTTTGGTGACAAAT"}, "B4": {"name": "Table S3 C row 198 (dsDNA)", "DNA 1": "GGCAGCAGCCTTCGGCTTCCGCTTTTCGGCTTTCGC", "DNA 2": "GCGAAAGCCGAAAAGCGGAAGCCGAAGGCTGCTGCC"}, "B5": {"name": "Table S3 B row 887 (dsDNA)", "DNA 1": "CACCCTGCCACCTCCCTAAACTCCCCGCACAGGCCG", "DNA 2": "CGGCCTGTGCGGGGAGTTTAGGGAGGTGGCAGGGTG"}, "B6": {"name": "Table S3 C row 70 (dsDNA)", "DNA 1": "GGCCGCGCCCAGACCCGGAAGCGGGGCCGTCACGTG", "DNA 2": "CACGTGACGGCCCCGCTTCCGGGTCTGGGCGCGGCC"}, "B7": {"name": "Table S3 C row 29 (dsDNA)", "DNA 1": "CCGGTCTCGCGATAGCGGAAAGGGCTGTACCATCTG", "DNA 2": "CAGATGGTACAGCCCTTTCCGCTATCGCGAGACCGG"}, "B8": {"name": "Table S3 B row 2805 (dsDNA)", "DNA 1": "AGCTTAATGCGGTTGGAGAACACCCTGTCTTATTGA", "DNA 2": "TCAATAAGACAGGGTGTTCTCCAACCGCATTAAGCT"}, "B9": {"name": "Table S3 C row 79 (dsDNA)", "DNA 1": "TTGCAAGTACACCTGCATCCGGTGGCATGTTTTAGT", "DNA 2": "ACTAAAACATGCCACCGGATGCAGGTGTACTTGCAA"}, "B10": {"name": "Table S3 C row 65 (dsDNA)", "DNA 1": "TTCACTGAACGGCTTCATCCTGTGCTTTGGGAGGCA", "DNA 2": "TGCCTCCCAAAGCACAGGATGAAGCCGTTCAGTGAA"}, "B11": {"name": "Table S3 B row 3059 (dsDNA)", "DNA 1": "AGGCTGTGGTTATCTGCAAACAGCCCCCGTCCATCC", "DNA 2": "GGATGGACGGGGGCTGTTTGCAGATAACCACAGCCT"}, "B12": {"name": "Table S3 C row 121 (dsDNA)", "DNA 1": "CACTCATTCCAGATCAGGAAGTGATCAGTGCCTCAA", "DNA 2": "TTGAGGCACTGATCACTTCCTGATCTGGAATGAGTG"}, "B13": {"name": "Table S3 B row 2568 (dsDNA)", "DNA 1": "GTCGCCTGCGGTGACTCAGCTCTTACGGTCACCGCC", "DNA 2": "GGCGGTGACCGTAAGAGCTGAGTCACCGCAGGCGAC"}, "B14": {"name": "Table S3 B row 3020 (dsDNA)", "DNA 1": "TTTTATCGTCCGCGAGCCCTCATCCCACAACTCTTC", "DNA 2": "GAAGAGTTGTGGGATGAGGGCTCGCGGACGATAAAA"}, "B15": {"name": "Table S3 C row 101 (dsDNA)", "DNA 1": "AGTCAGAAGTTTCAGCGGAAATTGAAGCGCGGCCCT", "DNA 2": "AGGGCCGCGCTTCAATTTCCGCTGAAACTTCTGACT"}, "B16": {"name": "Table S3 B row 1244 (dsDNA)", "DNA 1": "GGAACCCGCAGAAGCCCCGCCTCCCGTAAGCGGAGC", "DNA 2": "GCTCCGCTTACGGGAGGCGGGGCTTCTGCGGGTTCC"}, "B17": {"name": "Table S3 C row 100 (dsDNA)", "DNA 1": "TGGCTAGGGGCAGGGCTTCCGGCCTCGAACTTTAAC", "DNA 2": "GTTAAAGTTCGAGGCCGGAAGCCCTGCCCCTAGCCA"}, "B18": {"name": "Table S3 C row 20 (dsDNA)", "DNA 1": "TACCTCTGTAACAGGTTTCCTGTCCCTGCCCAGCTT", "DNA 2": "AAGCTGGGCAGGGACAGGAAACCTGTTACAGAGGTA"}, "B19": {"name": "Table S3 B row 1720 (dsDNA)", "DNA 1": "GCCTGCGGTGTGGACTCGCATCATGTCCTCTTTCTG", "DNA 2": "CAGAAAGAGGACATGATGCGAGTCCACACCGCAGGC"}, "B20": {"name": "Table S3 C row 74 (dsDNA)", "DNA 1": "GTCATCTCGTTGACACTTCCGCTGACCCGTGCAGTT", "DNA 2": "AACTGCACGGGTCAGCGGAAGTGTCAACGAGATGAC"}, "B21": {"name": "Table S3 C row 11 (dsDNA)", "DNA 1": "AAAAGCATCCCCAGACTTCCTGTTGGGAGCTCTCTG", "DNA 2": "CAGAGAGCTCCCAACAGGAAGTCTGGGGATGCTTTT"}, "B22": {"name": "Table S3 B row 116 (dsDNA)", "DNA 1": "GTAGTTCCTTGTCTTTCCTTCTGCCGCCGCAGGCCT", "DNA 2": "AGGCCTGCGGCGGCAGAAGGAAAGACAAGGAACTAC"}, "B23": {"name": "Table S3 B row 1286 (dsDNA)", "DNA 1": "CCCAATTGCCTTTGCTCTGCTGTCTGCCAACCGCAA", "DNA 2": "TTGCGGTTGGCAGACAGCAGAGCAAAGGCAATTGGG"}, "B24": {"name": "Table S3 B row 1567 (dsDNA)", "DNA 1": "ACGGAGCTGTGGTTTAACGTTTCAGGTTCGTGGCTA", "DNA 2": "TAGCCACGAACCTGAAACGTTAAACCACAGCTCCGT"}, "B25": {"name": "Table S3 B row 1562 (dsDNA)", "DNA 1": "CCACACCCACAAGGCCAGCCTCAATTCCTCACTCCT", "DNA 2": "AGGAGTGAGGAATTGAGGCTGGCCTTGTGGGTGTGG"}, "B26": {"name": "Table S3 C row 8 (dsDNA)", "DNA 1": "GCCAGGCCGGCGGCGCGGAAGGTCTCCTGTGCCTGC", "DNA 2": "GCAGGCACAGGAGACCTTCCGCGCCGCCGGCCTGGC"}, "B27": {"name": "Table S3 B row 232 (dsDNA)", "DNA 1": "TGTTGTGTGGTTTCAGAGATACGTCCTTGGGTTGCC", "DNA 2": "GGCAACCCAAGGACGTATCTCTGAAACCACACAACA"}, "B28": {"name": "Table S3 B row 594 (dsDNA)", "DNA 1": "CCCCTCCCCACACCACAACAAACCTGATCCTTGCGC", "DNA 2": "GCGCAAGGATCAGGTTTGTTGTGGTGTGGGGAGGGG"}, "B29": {"name": "Table S3 C row 128 (dsDNA)", "DNA 1": "GGTCCCGCCCCTGGCCGGAAGTTCTGGCGGCGGAGC", "DNA 2": "GCTCCGCCGCCAGAACTTCCGGCCAGGGGCGGGACC"}, "B30": {"name": "Table S3 C row 106 (dsDNA)", "DNA 1": "ACCAGGCGACGATGCCGGAACGCGCAAGTACGCGAG", "DNA 2": "CTCGCGTACTTGCGCGTTCCGGCATCGTCGCCTGGT"}, "B31": {"name": "Table S3 C row 27 (dsDNA)", "DNA 1": "TGCGCCGCGCCCCGGGTTCCGGAATGCACTCTGAAC", "DNA 2": "GTTCAGAGTGCATTCCGGAACCCGGGGCGCGGCGCA"}, "B32": {"name": "Table S3 B row 736 (dsDNA)", "DNA 1": "CTCTGAACCGCATGATCTCTAAGACCACTTGCTGTT", "DNA 2": "AACAGCAAGTGGTCTTAGAGATCATGCGGTTCAGAG"}}}
{"target": "RUNX1 (Homo sapiens, UniProt Q01196)", "sequence (Q01196 whole entry)": "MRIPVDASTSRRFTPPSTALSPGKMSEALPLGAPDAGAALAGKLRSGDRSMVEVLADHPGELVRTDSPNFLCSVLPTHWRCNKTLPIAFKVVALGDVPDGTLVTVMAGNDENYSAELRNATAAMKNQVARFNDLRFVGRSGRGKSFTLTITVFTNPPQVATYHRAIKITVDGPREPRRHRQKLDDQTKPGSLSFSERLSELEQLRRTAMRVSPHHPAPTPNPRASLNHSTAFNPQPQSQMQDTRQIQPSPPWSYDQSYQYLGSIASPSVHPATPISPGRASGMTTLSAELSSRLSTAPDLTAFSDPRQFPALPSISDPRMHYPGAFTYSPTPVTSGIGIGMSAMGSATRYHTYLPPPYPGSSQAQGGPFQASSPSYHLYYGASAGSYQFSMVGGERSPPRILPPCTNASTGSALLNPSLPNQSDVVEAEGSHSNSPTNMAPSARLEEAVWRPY", "assay": "gcPBM; 2 nM RUNX1", "conditions": "tags: N-terminal GST (pDEST15), kept (PMC6008103); label: surface-attached array probe"}
{"binder": "B1", "binding signal": "610 PBM fluorescence, median of replicate spots"}
{"binder": "B2", "binding signal": "1870 PBM fluorescence, median of replicate spots"}
{"binder": "B3", "binding signal": "1740 PBM fluorescence, median of replicate spots"}
{"binder": "B4", "binding signal": "686 PBM fluorescence, median of replicate spots"}
{"binder": "B5", "binding signal": "1620 PBM fluorescence, median of replicate spots"}
{"binder": "B6", "binding signal": "680 PBM fluorescence, median of replicate spots"}
{"binder": "B7", "binding signal": "697 PBM fluorescence, median of replicate spots"}
{"binder": "B8", "binding signal": "1930 PBM fluorescence, median of replicate spots"}
{"binder": "B9", "binding signal": "712 PBM fluorescence, median of replicate spots"}
{"binder": "B10", "binding signal": "718 PBM fluorescence, median of replicate spots"}
{"binder": "B11", "binding signal": "1590 PBM fluorescence, median of replicate spots"}
{"binder": "B12", "binding signal": "680 PBM fluorescence, median of replicate spots"}
{"binder": "B13", "binding signal": "1800 PBM fluorescence, median of replicate spots"}
{"binder": "B14", "binding signal": "1790 PBM fluorescence, median of replicate spots"}
{"binder": "B15", "binding signal": "665 PBM fluorescence, median of replicate spots"}
{"binder": "B16", "binding signal": "1640 PBM fluorescence, median of replicate spots"}
{"binder": "B17", "binding signal": "688 PBM fluorescence, median of replicate spots"}
{"binder": "B18", "binding signal": "673 PBM fluorescence, median of replicate spots"}
{"binder": "B19", "binding signal": "1680 PBM fluorescence, median of replicate spots"}
{"binder": "B20", "binding signal": "697 PBM fluorescence, median of replicate spots"}
{"binder": "B21", "binding signal": "697 PBM fluorescence, median of replicate spots"}
{"binder": "B22", "binding signal": "1720 PBM fluorescence, median of replicate spots"}
{"binder": "B23", "binding signal": "1860 PBM fluorescence, median of replicate spots"}
{"binder": "B24", "binding signal": "1650 PBM fluorescence, median of replicate spots"}
{"binder": "B25", "binding signal": "1900 PBM fluorescence, median of replicate spots"}
{"binder": "B26", "binding signal": "689 PBM fluorescence, median of replicate spots"}
{"binder": "B27", "binding signal": "1750 PBM fluorescence, median of replicate spots"}
{"binder": "B28", "binding signal": "1700 PBM fluorescence, median of replicate spots"}
{"binder": "B29", "binding signal": "714 PBM fluorescence, median of replicate spots"}
{"binder": "B30", "binding signal": "676 PBM fluorescence, median of replicate spots"}
{"binder": "B31", "binding signal": "659 PBM fluorescence, median of replicate spots"}
{"binder": "B32", "binding signal": "1820 PBM fluorescence, median of replicate spots"}
